These results are taken from US20140329228A1 (Ushio Denki Kabushiki Kaisha, priority 2011, published 2014).

Format in all cases: binding
A short description of assay [1]: Fluorescence enhancement of fluoro-labeled Fab complex / scFv with morphine. The conditions noted are these: antigen Morphine 100 μg/mL versus absence of antigen.
Assay [2] is described as follows: Fluorescence enhancement of fluoro-labeled Fab complex with MDA. The conditions noted are these: antigen MDA 100 μg/mL versus absence of antigen.
Assay [3] can be described thus: Fluorescence enhancement of fluoro-labeled Fab complex / scFv with cocaine. The conditions noted are these: antigen Cocaine 100 μg/mL versus absence of antigen.
The nature of assay [4]: Fluorescence enhancement of fluoro-labeled Fab complex / scFv with ketamine. Particulars: for Fluorescence enhancement: 1.0 mg/mL Ketamine versus absence of antigen, Ex/Em 530/580.
The nature of assay [5]: Measurement of cannabinoid component THC using fluoro-labeled Fab complex. Particulars: 100 μg/mL THC versus absence of antigen, Ex/Em 530/580.
Assay [6] can be described thus: Measurement of clenbuterol using fluoro-labeled Fab complex. Particulars: 16 μg/mL Clenbuterol versus absence of antigen; Ex/Em 480/530.
The target in the next assay is HSA (Homo sapiens, UniProt P02768). Put plainly: Fluorescence emission spectrum measurement, different-color double-label anti-SA Fab complex with HSA. The conditions noted are these: antigen HSA; ratio to no antigen. The source says:
Similarly, the different-color double-label Fab complex of the anti-SA antibody prepared in Example 1 comprising a polypeptide containing a heavy chain variable region (VH; SEQ ID NO: 12) of an anti-SA antibody labeled with a CR110, TAMRA, or ATTO 655 fluorescent dye and an antibody heavy chain constant domain (CH1; SEQ ID NO: 6), and a polypeptide containing a light chain variable region (VL; SEQ ID NO: 10) of an anti-SA antibody labeled with a dye differing from the above dye and an antibody light chain constant domain (Cκ; SEQ ID NO: 4) was reacted with antigenic HSA (0 to 100 μM), and then fluorescence intensity was measured. The ratio of the fluorescence intensity at each antigen concentration to the fluorescence intensity when no antigen was present was designated as the “fluorescence intensity ratio” and is shown in the graphs of FIG. 10. […]
Moreover, when irradiated with excitation light with a wavelength of 530 nm, fluorescence intensity ratios obtained at a fluorescence wavelength of about 530 nm in the case of CR110_TAMRA was higher than those of no_TAMRA, because of the quenching effect due to the interaction between the fluorescent dyes. […]

Assay [7] is described as follows: Measurement of cotinine using fluoro-labeled Fab complex. Particulars: 3.5 μg/mL Cotinine versus absence of antigen, Ex/Em 530/580.
A short description of assay [8]: Measurement of ractopamine using fluoro-labeled Fab complex. Particulars: 3.4 μg/mL Ractopamine versus absence of antigen, Ex/Em 530/580.

Marks after values point to notes of the source that are not given here.

B1: Anti-Cocaine: same-color double-label Fab complex of anti-cocaine antibody; TAMRA-labeled VL (SEQ ID NO: 27) and VH (SEQ ID NO: 28) (antibody, V domains shown)
VH: DVTLQESGGGLVQPGGSMKLSCAASGFTFSDAWVDWVRQSPGKGLEWVAEIRNKANNHATKYTESVKGRFTISRDDSKSSVYLQMNSLRAEDTGIYYCTSVPQLGRGFAYWGQGTLVTVSS
VL: DIVMTQAAPSVPVTPGESVSISCRSSKSLLHSNGYTYLHWFLQRPGQSPQLLIYRVSNLASGVPDRFSGSGSGTAFTLRFSRVEAEDVGVYYCMQHLEYPFTFGSGTKLEIKR
modifications: Fab; TAMRA labels; Coca-VH-28; Coca-VL-27
Regarding B1, the “Fluorescence enhancement in the presence of 100 μg/mL antigen” value was determined as 0.9 in [1], 0.9 in [2], 3.7 in assay [3] and 0.9 in assay [4] (antigen Ketamine 100 μg/mL versus absence of antigen).

B2: Anti-THC: same-color double-label Fab complex of anti-THC antibody; TAMRA-labeled VL (SEQ ID NO: 29) and VH (SEQ ID NO: 30) (antibody, V domains shown)
VH: EVKLVESGGGLVKPGGSLKLSCAASGFTFNNYVMVWLRQTPEKRLEWVASISRGGSTYYPDSVKGRFTISRDNARNILYLQMSSLRSEDTAMYYCVRGTTIVAGDVWGAGTTVTVSS
VL: DIVLTQSPTTMAASPGEKITITCSASSSISSNYLHWYQQKPGFSPKLLIYRTSNLASGVPARFSGSGSGTSYSLTIGTMEAEDVATYYCQQGSSIPLTFGAGTKLELKR
modifications: Fab; TAMRA labels; THC-VH-30; THC-VL-29
For the molecule B2, the Fluorescence enhancement in assay [5] is reported as 1.3*^1; in [5] (listed as anti-THC), 1.3.

B3: Anti-Clenbuterol: different-color double-label Fab complex of anti-clenbuterol antibody; CR110-labeled VL (SEQ ID NO: 15)+Cκ, TAMRA-labeled VH (SEQ ID NO: 16)+CH1 (antibody, V domains shown)
VH: QVKLQESGGGLVKPRGSLKLSCAASGFTFSSYDMSWVRQTPEKRLEWVASIRSGGYYTLYPDSVKGRFTISRDNVKNTLYLQMSSLRSEDTAMYYCSRDGNDEYFDVWGAGTTVTVSS
VL: DIELTQSPAILSASPGEKVTMTCSANSSVSYMHWYQQKSRTSPKLWIYDTSKLASGVPGRFSGSGSGNSYSLTISSMEAEDVATYYCFQGSKYPFTFGSGTRLEIKR
modifications: Ckappa and CH1 without entry; CR110, TAMRA labels; Clen-VH-16; Clen-VL-15
Regarding B3, the Fluorescence enhancement in [6] came to 1.5.

B4: CR110_TAMRA: different-color double-label Fab complex of anti-SA antibody; CR110-labeled VH (SEQ ID NO: 12)+CH1, TAMRA-labeled VL (SEQ ID NO: 10)+Cκ (antibody, V domains shown)
VH: EVQLLESGGGLVQPGGSLRLSCAASGFTFSSYAMSWVRQAPGKGLEWVSHISPYGANTRYADSVKGRFTISRDNSKNTLYLQMNSLRAEDTAVYYCAKGLRAFDYWGQGTLVTVSS
VL: DIQMTQSPSSLSASVGDRVTITCRASQSISSYLNWYQQKPGKAPKLLIYRASLLQSGVPSRFSGSGSGTDFTLTISSLQPEDFATYYCQQGRDRPATFGQGTKVEIKR
modifications: CH1 and Ckappa constant domains; CR110 and TAMRA labels; anti-SA antibody VH; anti-SA antibody VL
As to B4, the maximum fluorescence enhancement with HSA worked out at 75 fold.

B5: Anti-Ketamine: same-color double-label Fab complex of anti-ketamine antibody; TAMRA-labeled VL (SEQ ID NO: 31) and VH (SEQ ID NO: 32) (antibody, V domains shown)
VH: QVQLKESGPGLVAPSQSLSITCTVSGFALTGYGVNWVRQPPGKGLEWLGMIWGDGNTDYNSALKSRLSISKDNSKSQVFLKMNSLQTDDTARYYCARGNGYFYVLDYWGQGTSVTVSS
VL: QAVVTQESALTTSPGETVTLTCRSSTGAVTTSNYANWVQEKPDHLFTGLIGGTNNRAPGVPARFSGSLIGDKAALTITGAQTEDEAIYFCSLWYSNHLVFGGGTKLTVLGQ
modifications: Fab; TAMRA labels; Keta-VH-32; Keta-VL-31
B5: the Fluorescence enhancement is listed as 2.0*^2 in assay [4] and 2.0 in assay [4] (listed as anti-ketamine).

B6: Anti-cotinine: same-color double-label Fab complex of anti-cotinine antibody; TAMRA-labeled VL (SEQ ID NO: 19) and VH (SEQ ID NO: 20) (antibody, V domains shown)
VH: QQQLVESGGRLVTPGGSLTLTCTASGFSLNNYWMSWVRQAPGKGLEWIGDIHGNRGFNYHASWAKGRFTVSRTSTTVDLRMTSLTTEDTAIYFCARADDSGSHDIWGPGTLVTVSS
VL: ELDLTQTPSPVSAAVGDTVTINCQSSQSVYSAKLSWYQQKPGQPPKLLIYYGSTLASGVPSRFKGSGSGTQFSLTISDVQCADAATYYCQGTYYGPDWYFAFGGGTEVVVKR
modifications: Fab; TAMRA labels; Coti-VH-20; Coti-VL-19
Regarding B6, the Fluorescence enhancement in [7] is 1.9*^2; in assay [7] (listed as anti-cotinine), 1.9.

B7: Anti-Ractopamine: same-color double-label Fab complex of anti-ractopamine antibody; TAMRA-labeled VL (SEQ ID NO: 17) and VH (SEQ ID NO: 18) (antibody, V domains shown)
VH: DVQLVESGPGLVKPSQSLSLTCTVTGYSITSDYAWNWIRQFPGNKLEWMGYIFYSGSTSYNPSLKSRISITRDTSKNQFFLQLNSVTTEDTATYFCARLAYYYDYDGYAMDYWGQGTSVTVSS
VL: DILMTQTPLSLPVSLGDQASISCRSSQNIVHSDGNTYLEWYLQKPGQSPKLLISKVSNRFSGVPDRFSGSGSGTDFTLKISRVEAEDLGIYYCFQGSHVPWTFGGGTKLEIKR
modifications: Fab; TAMRA labels; Ract-VH-18; Ract-VL-17
Turning to B7, the Fluorescence enhancement in assay [8] was 2.3*^1; in [8] (listed as anti-ractopamine), 2.3.
